Data: patent US20200062804A1 (ADRX, published 2020)
Non-standard residues stand in square brackets, D forms with d. No end group written: not given here. hArg = N=C(N)NCCCC[C@H](N)C(=O)O

T1: Nat1 (LTIITLE) (also: TFA salt)
T1 peptide: LTIITLE


biological target: Protein in Human Serum; experiment: protein binding in human serum; method not described

| % Protein Binding in Human Serum | Molecule |
| --- | --- |
| 93% | rrrrrrrrrrpirihyfrr (peptide) |
| 89% | rrrrrrrrrgggyqwyrwq (peptide) |
| 94% | rrrrrrrrrrpikwrwyrr (peptide) |
| 95% | rrrrrrrrrrpihlriwrn (peptide) |
| 86% | rrrrrrrrrrpikfrfyhr (peptide) |
| 12% | rrrrrrrrrrpihqrqyqr (peptide) |
| 99% | rrrrrrrrrrpiyqwyrwq (peptide) |
| 84% | RRRRRRRRRRPIIRIRHYR |
| 89% | PRRRRRRRRRRPITRIRFYRP |
| 82% | [dQ][dQ][dR][dY][dY][dW][dR] [qqryywr] |
| 89% | PRRRRRRRRRRPIIRIRHYRP |
| 98% | [dY][dQ][dW][dY][dR][dW][dQ] [yqwyrwq] |
| 98% | PRRRRRRRRRRPILRIRYWKP |
| 100% | PRRRRRRRRRRPIWTIKLWHP |
| 66% | RRRRRRRRRRPILTRITLE |
| 91% | [dR][dF][dY][dY][dH][dR][dR] [rfyyhrr] |
| 81% | [dK][dF][dR][dF][dY][dH][dR] [kfrfyhr] |
| 81% | RRRRRRRRRRPIIRIRHYRP |
| 83% | RRRRRRRRRRPIIRIRHYP |

Biological target: T1, Nat1 (LTIITLE)
Experiment: cell-based or functional assay

| IC50, Thiofiavin T aggregation assay | Molecule |
| --- | --- |
| 176 nM | [dF][dW][dR][dW][dA][dR][dR] [fwrwarr] |
| 210 nM | LFIKYHR |
| 181 nM | [dY][dQ][dY][dY][dF][dW][dR] [yqyyfwr] |
| 192 nM | LYIRLTH |
| 43 nM | [dR][dI][dH][dY][dF][dR][dR] [rihyfrr] |
| 95 nM | [dQ][dQ][dR][dY][dY][dW][dR] [qqryywr] |
| 167 nM | [dQ][dI][dR][dY][dF][dR][dR] [qiryfrr] |
| 181 nM | [dQ][dF][dR][dM][dH][dH][dR] [qfrmhhr] |
| 194 nM | [dY][dQ][dW][dY][dR][dW][dQ] [yqwyrwq] |
| 228 nM | [dF][dW][dR][dW][dH][dR][dA] [fwrwhra] |
| 203 nM | WTIRYYK |
| 40 nM | IRI[hArg]RYR [Ile-Arg-Ile-homoArg-Arg-Tyr-Arg] |
| 76 nM | [dR][dF][dY][dY][dH][dR][dR] [rfyyhrr] |
| 198 nM | LTIRLWH |
| 32 nM | [dK][dF][dR][dF][dY][dH][dR] [kfrfyhr] |
| 205 nM | IRIRRY |
| 199 nM | [dR][dW][dR][dI][dL][dQ][dK] [rwrilqk] |

| IC50, Thiofiavin T aggregation assay | Molecule |
| --- | --- |
| 180 nM | LYIRYTH |
| 213 nM | TRIYRYK |
| 175 nM | YRLRYVR |
| 191 nM | [dY][dQ][dW][dR][dY][dR][dR] [yqwryrr] |
| 222 nM | WTRITLK |
| 210 nM | [dR][dQ][dH][dY][dR][dW][dR] [rqhyrwr] |
| 187 nM | [dS][dW][dW][dF][dR][dH][dR] [swwfrhr] |
| 203 nM | LYIRTLH |
| 194 nM | [dL][dW][dR][dW][dY][dR][dR] [lwrwyrr] |
| 220 nM | LAIKYHR |
| 182 nM | LRIRHYT |
| 185 nM | FRIRRYR |
| 216 nM | [dR][dW][dM][dY][dW][dQ][dR] [rwmywqr] |
| 192 nM | [dH][dL][dR][dY][dH][dR][dK] [hlryhrk] |
| 215 nM | [dR][dL][dH][dW][dK][dH][dH] [rlhwkhh] |
| 37 nM | IRIRRAR |
